These results are taken from patent US20250388628A1 (Genentech, published 2025).

Sequences and labels used below:
B7: AAV2 VP3 VLP A593E (other)
chain: MATGSGAPMADNNEGADGVGNSSGNWHCDSTWMGDRVITTSTRTWALPTYNNHLYKQISSQSGASNDNHYFGYSTPWGYFDFNRFHCHFSPRDWQRLINNNWGFRPKRLNFKLFNIQVKEVTQNDGTTTIANNLTSTVQVFTDSEYQLPYVLGSAHQGCLPPFPADVFMVPQYGYLTLNNGSQAVGRSSFYCLEYFPSQMLRTGNNFTFSYTFEDVPFHSSYAHSQSLDRLMNPLIDQYLYYLSRTNTPSGTTTQSRLQFSQAGASDIRDQSRNWLPGPCYRQQRVSKTSADNNNSEYSWTGATKYHLNGRDSLVNPGPAMASHKDDEEKFFPQSGVLIFGKQGSEKTNVDIEKVMITDEEEIRTTNPVATEQYGSVSTNLQRGNRQAATEDVNTQGVLPGMVWQDRDVYLQGPIWAKIPHTDGHFHPSPLMGGFGLKHPPPQILIKNTPVPANPSTTFSAAKFASFITQYSTGQVSVEIEWELQKENSKRWNPEIQYTSNYNKSVNVDFTVDTNGVYSEPRPIGTRYLTRNL
notes: VP3-only VLP
B8: AAV2 VP3 VLP T592D (other)
chain: MATGSGAPMADNNEGADGVGNSSGNWHCDSTWMGDRVITTSTRTWALPTYNNHLYKQISSQSGASNDNHYFGYSTPWGYFDFNRFHCHFSPRDWQRLINNNWGFRPKRLNFKLFNIQVKEVTQNDGTTTIANNLTSTVQVFTDSEYQLPYVLGSAHQGCLPPFPADVFMVPQYGYLTLNNGSQAVGRSSFYCLEYFPSQMLRTGNNFTFSYTFEDVPFHSSYAHSQSLDRLMNPLIDQYLYYLSRTNTPSGTTTQSRLQFSQAGASDIRDQSRNWLPGPCYRQQRVSKTSADNNNSEYSWTGATKYHLNGRDSLVNPGPAMASHKDDEEKFFPQSGVLIFGKQGSEKTNVDIEKVMITDEEEIRTTNPVATEQYGSVSTNLQRGNRQAADADVNTQGVLPGMVWQDRDVYLQGPIWAKIPHTDGHFHPSPLMGGFGLKHPPPQILIKNTPVPANPSTTFSAAKFASFITQYSTGQVSVEIEWELQKENSKRWNPEIQYTSNYNKSVNVDFTVDTNGVYSEPRPIGTRYLTRNL
notes: VP3-only VLP
B9: AAV receptor (AAVR) fragment comprising the domains PKD1 and PKD2 (residues V305-V499) (receptor)
chain: VIKELVVSAGESVQITLPKNEVQLNAYVLQEPPKGETYTYDWQLITHPRDYSGEMEGKHSQILKLSKLTPGLYEFKVIVEGQNAHGEGYVNVTVKPEPRKNRPPIAIVSPQFQEISLPTTSTVIDGSQSTDDDKIVQYHWEELKGPLREEKISEDTAILKLSKLVPGNYTFSLTVVDSDGATNSTTANLTVNKAV

Experiment [1] has as its target B9. In words: SPR; against wild-type VLP. On the technique in general: SPR reads the build-up and loss of mass on a sensor chip optically.
Experiment [2] addresses B9. The experiment can be described thus: SPR; captured AAV9 VP3 VLP, AAVR analyte.
The target of experiment [3] is B9. The experiment can be described thus: SPR; affinity against wild-type AAV2 VLP.
Experiment [4] has as its target T1, AAV2 VP3 VLP T592D/A593E (adeno-associated virus serotype 2 (AAV2), UniProt P03135 203-735).
T1 construct: VP3-only VLP
The experiment can be described thus: SPR; captured AAV2 VP3 VLP, AAVR analyte.

Experiment [5] has as its target T2, Wild-type AAV2 VP3 VLP (adeno-associated virus serotype 2 (AAV2), UniProt P03135 203-735).
T2 construct: VP3-only VLP; also called Wild-type AAV2 VLP (WT); WT
The experiment can be described thus: SPR; captured AAV2 VP3 VLP, AAVR analyte.

The target of experiment [6] is B8. In words: SPR; captured AAV2 VP3 VLP, AAVR analyte.
Experiment [7] has as its target B7. The experiment can be described thus: SPR; captured AAV2 VP3 VLP, AAVR analyte.

B1: AAV9 VP3 VLP A273N, A472H, E500P (other)
VP3: MASGGGAPVADNNEGADGVGSSSGNWHCDSQWLGDRVITTSTRTWALPTYNNHLYKQISNSTSGGSSNDNNYFGYSTPWGYFDFNRFHCHFSPRDWQRLINNNWGFRPKRLNFKLFNIQVKEVTDNNGVKTIANNLTSTVQVFTDSDYQLPYVLGSAHEGCLPPFPADVFMIPQYGYLTLNDGSQAVGRSSFYCLEYFPSQMLRTGNNFQFSYEFENVPFHSSYAHSQSLDRLMNPLIDQYLYYLSKTINGSGQNQQTLKFSVAGPSNMHVQGRNYIPGPSYRQQRVSTTVTQNNNSPFAWPGASSWALNGRNSLMNPGPAMASHKEGEDRFFPLSGSLIFGKQGTGRDNVDADKVMITNEEEIKTTNPVATESYGQVATNHQSAQAQAQTGWVQNQGILPGMVWQDRDVYLQGPIWAKIPHTDGNFHPSPLMGGFGMKHPPPQILIKNTPVPADPPTAFNKDKLNSFITQYSTGQVSVEIEWELQKENSKRWNPEIQYTSNYYKSNNVEFAVNTEGVYSEPRPIGTRYLTRNL
notes: VP3-only VLP
A word on the Kd: it is the constant that tells how readily two partners part at equilibrium. Low values mean tighter binding, high ones weaker binding. As usually defined, the koff is the rate constant with which the complex falls apart. The low end stands for slow dissociation, the high end for fast dissociation. The term kon denotes the rate constant with which the complex forms. Low values mean slower complex formation, high ones faster complex formation. B1: in experiment [1], the “KD Fold Change” value came to 455 fold. Besides, in experiment [2], binding was put at a Kd of 5.14 nM, the dissociation rate constant (koff) worked out at 0.000236 s⁻¹ and the kon stood at 45900 M⁻¹ s⁻¹.

B2: AAV9 VP3 VLP Q387K, A472H, E500P (other)
VP3: MASGGGAPVADNNEGADGVGSSSGNWHCDSQWLGDRVITTSTRTWALPTYNNHLYKQISNSTSGGSSNDNAYFGYSTPWGYFDFNRFHCHFSPRDWQRLINNNWGFRPKRLNFKLFNIQVKEVTDNNGVKTIANNLTSTVQVFTDSDYQLPYVLGSAHEGCLPPFPADVFMIPQYGYLTLNDGSKAVGRSSFYCLEYFPSQMLRTGNNFQFSYEFENVPFHSSYAHSQSLDRLMNPLIDQYLYYLSKTINGSGQNQQTLKFSVAGPSNMHVQGRNYIPGPSYRQQRVSTTVTQNNNSPFAWPGASSWALNGRNSLMNPGPAMASHKEGEDRFFPLSGSLIFGKQGTGRDNVDADKVMITNEEEIKTTNPVATESYGQVATNHQSAQAQAQTGWVQNQGILPGMVWQDRDVYLQGPIWAKIPHTDGNFHPSPLMGGFGMKHPPPQILIKNTPVPADPPTAFNKDKLNSFITQYSTGQVSVEIEWELQKENSKRWNPEIQYTSNYYKSNNVEFAVNTEGVYSEPRPIGTRYLTRNL
notes: VP3-only VLP
For the molecule B2, the “KD Fold Change” value in experiment [1] was found to be 3370 fold. In experiment [2], this molecule returned a Kd of 0.694 nM, a koff of 0.000338 s⁻¹ and a kon of 487000 M⁻¹ s⁻¹.

B3: AAV9 VP3 VLP I451Y, S454I, E500P, P504T (other)
chain: MASGGGAPVADNNEGADGVGSSSGNWHCDSQWLGDRVITTSTRTWALPTYNNHLYKQISNSTSGGSSNDNAYFGYSTPWGYFDFNRFHCHFSPRDWQRLINNNWGFRPKRLNFKLFNIQVKEVTDNNGVKTIANNLTSTVQVFTDSDYQLPYVLGSAHEGCLPPFPADVFMIPQYGYLTLNDGSQAVGRSSFYCLEYFPSQMLRTGNNFQFSYEFENVPFHSSYAHSQSLDRLMNPLIDQYLYYLSKTYNGIGQNQQTLKFSVAGPSNMAVQGRNYIPGPSYRQQRVSTTVTQNNNSPFAWTGASSWALNGRNSLMNPGPAMASHKEGEDRFFPLSGSLIFGKQGTGRDNVDADKVMITNEEEIKTTNPVATESYGQVATNHQSAQAQAQTGWVQNQGILPGMVWQDRDVYLQGPIWAKIPHTDGNFHPSPLMGGFGMKHPPPQILIKNTPVPADPPTAFNKDKLNSFITQYSTGQVSVEIEWELQKENSKRWNPEIQYTSNYYKSNNVEFAVNTEGVYSEPRPIGTRYLTRNL
modifications: One VP3 subunit is given; in the assay it stood assembled as a VP3-only icosahedral VLP capsid.
notes: VP3-only VLP
As for B3, the “KD Fold Change” value in experiment [1] was determined as 146 fold.

B4: AAV9 VP3 VLP A273N, Q387K, A472H, E500P (other)
VP3: MASGGGAPVADNNEGADGVGSSSGNWHCDSQWLGDRVITTSTRTWALPTYNNHLYKQISNSTSGGSSNDNNYFGYSTPWGYFDFNRFHCHFSPRDWQRLINNNWGFRPKRLNFKLFNIQVKEVTDNNGVKTIANNLTSTVQVFTDSDYQLPYVLGSAHEGCLPPFPADVFMIPQYGYLTLNDGSKAVGRSSFYCLEYFPSQMLRTGNNFQFSYEFENVPFHSSYAHSQSLDRLMNPLIDQYLYYLSKTINGSGQNQQTLKFSVAGPSNMHVQGRNYIPGPSYRQQRVSTTVTQNNNSPFAWPGASSWALNGRNSLMNPGPAMASHKEGEDRFFPLSGSLIFGKQGTGRDNVDADKVMITNEEEIKTTNPVATESYGQVATNHQSAQAQAQTGWVQNQGILPGMVWQDRDVYLQGPIWAKIPHTDGNFHPSPLMGGFGMKHPPPQILIKNTPVPADPPTAFNKDKLNSFITQYSTGQVSVEIEWELQKENSKRWNPEIQYTSNYYKSNNVEFAVNTEGVYSEPRPIGTRYLTRNL
notes: VP3-only VLP
As for B4, the “KD Fold Change” value in experiment [1] was 5560 fold. In experiment [2], this molecule displayed a Kd of 0.421 nM, a koff of 3.96e-05 s⁻¹ and a kon of 94000 M⁻¹ s⁻¹.

B5: AAV9 VP3 VLP I451Y, S454I, E500P (other)
chain: MASGGGAPVADNNEGADGVGSSSGNWHCDSQWLGDRVITTSTRTWALPTYNNHLYKQISNSTSGGSSNDNAYFGYSTPWGYFDFNRFHCHFSPRDWQRLINNNWGFRPKRLNFKLFNIQVKEVTDNNGVKTIANNLTSTVQVFTDSDYQLPYVLGSAHEGCLPPFPADVFMIPQYGYLTLNDGSQAVGRSSFYCLEYFPSQMLRTGNNFQFSYEFENVPFHSSYAHSQSLDRLMNPLIDQYLYYLSKTYNGIGQNQQTLKFSVAGPSNMAVQGRNYIPGPSYRQQRVSTTVTQNNNSPFAWPGASSWALNGRNSLMNPGPAMASHKEGEDRFFPLSGSLIFGKQGTGRDNVDADKVMITNEEEIKTTNPVATESYGQVATNHQSAQAQAQTGWVQNQGILPGMVWQDRDVYLQGPIWAKIPHTDGNFHPSPLMGGFGMKHPPPQILIKNTPVPADPPTAFNKDKLNSFITQYSTGQVSVEIEWELQKENSKRWNPEIQYTSNYYKSNNVEFAVNTEGVYSEPRPIGTRYLTRNL
notes: VP3-only VLP
Regarding B5, in experiment [1], the “KD Fold Change” value was 217 fold.

B6: AAV9 VP3 VLP I451Y, S454I, E500P, P504I (other)
chain: MASGGGAPVADNNEGADGVGSSSGNWHCDSQWLGDRVITTSTRTWALPTYNNHLYKQISNSTSGGSSNDNAYFGYSTPWGYFDFNRFHCHFSPRDWQRLINNNWGFRPKRLNFKLFNIQVKEVTDNNGVKTIANNLTSTVQVFTDSDYQLPYVLGSAHEGCLPPFPADVFMIPQYGYLTLNDGSQAVGRSSFYCLEYFPSQMLRTGNNFQFSYEFENVPFHSSYAHSQSLDRLMNPLIDQYLYYLSKTYNGIGQNQQTLKFSVAGPSNMAVQGRNYIPGPSYRQQRVSTTVTQNNNSPFAWIGASSWALNGRNSLMNPGPAMASHKEGEDRFFPLSGSLIFGKQGTGRDNVDADKVMITNEEEIKTTNPVATESYGQVATNHQSAQAQAQTGWVQNQGILPGMVWQDRDVYLQGPIWAKIPHTDGNFHPSPLMGGFGMKHPPPQILIKNTPVPADPPTAFNKDKLNSFITQYSTGQVSVEIEWELQKENSKRWNPEIQYTSNYYKSNNVEFAVNTEGVYSEPRPIGTRYLTRNL
modifications: One VP3 subunit is given; in the assay it stood assembled as a VP3-only icosahedral VLP capsid.
notes: VP3-only VLP
Regarding B6, the “KD Fold Change” value in experiment [1] worked out at 214 fold.

For B7, the “Fold change vs WT” value in experiment [3] is ~4 fold.

For the molecule B8, the “Fold change vs WT” value in experiment [3] stood at 5 fold.

Turning to B9, the Kd in experiment [4] is 330 nM; in experiment [5], 2100 nM; in experiment [6] it was 420 nM; in experiment [7] it was 520 nM. In addition, the koff in experiment [4] was found to be 0.00652 s⁻¹; in experiment [5], 0.0311 s⁻¹; in experiment [6], 0.00797 s⁻¹; in experiment [7], 0.0111 s⁻¹. For the same molecule, the kon was found to be 19600 M⁻¹ s⁻¹ in experiment [4], 15100 M⁻¹ s⁻¹ in experiment [5], 19100 M⁻¹ s⁻¹ in experiment [6] and 21600 M⁻¹ s⁻¹ in experiment [7].
